Test results published in the DeepSol protein solubility set.

Experiment: soluble on expression in E. coli; label from the status in PepcDB or PDB records

Row | Sequence | soluble on expression in E. coli
1 | MAHHHHHHMLQRSFVVRWVPRYIRQVPRVRQKKEQRDAVAMGRSKAPSKRRAECSAVSERDGGVARAAQAKRLEITEEGSTVLESPVSDVSRLLLRKAETLLDSWQKLNMTMTISGSRSDSLMGMKNSSSSQKRDAVAFMAQTEVFAVVKGMIHLSTPHEGSLNRCEEDNKHDSLRQNAFQEYRSTNIISGMVVIPDEATNDAVNYLAQIGRHRVGKVQDKVASLDDSFPISSAIFSLHEVVVFLELYNAMDCEDGELLLRLLEELRRIVFSTEKEIRTENHVLRECEEGVIPRLLLTLSSLGIVEENVLQRIVAINDGSILSRATIARYPESDLIRLLVAFNRFGLHHEPCFHVTAKTLRRNSLRNPLKSFCRNAVNCRVDAAPLGDGEKRSRIPSSMAGLTMNELLEALTAIALSLCREREVVKLLAATIVTAVEDEEYMRCSTKEKAKTREEDLGLLRTLQVHRAAKVCEQMDMPQPSLAHLLHRLSIRYGGLLADGGDVSLSPERVGFYDFITADLVKARCS | not soluble
2 | MPVGPPVPPKPSTPIMNGERLGEYGVGGHIGNGDVVPERRGILPASLREKINQKKELEGRATPSIEPDLVGRDRYDKASRCFSYVPAKSMQEAFERPRRTSFSRAIEKRENSVENVSQEEVARTEIPQSYQQNDISTPAKWDEQVEDAKQSALLEELARAPSAMQHNYWGNGEVDNVQVVDQAQRAVITPTSTLQRRPKPPARSGSYRTLNDDAYCSDMDELCDPEYYLNYNSNTAPLPPPRRQEQHAGTRSVQLPRKKMNFDAVTDPLDDVLESTKRLGSAYSVGDVRGGQQQQQEQHNASNDFNFSNTLNNTPTDYRQHYRNRNCQSVTTPRNHHFSTPSREQEADAADTWLSGKLKKVRSKRDIDPDIVRRRTQEKMLLEELKDSAANNDENQHNLPNGHARGAGLQNIDPLAEFRREEERLRNTRSPYGEERWRGRMRGKPPTPPPRESSASPVNSLPRGTPAHHMDRQRHNQSVPLPMHHRQFDEDFDVNSLFNFSHDPRQQSTTLERGGRSLSRGARIQDAYYASQQDLSANNRFNSGQERVAAAIYRAETAHRDMYASGTINRAETPGRYFPENSAVLERSSTPSFPVSRATPLPFHPLLYNNGERGGSGHAAGGGGGGHNGYSTMNNRSASPRLFGGSSTLSRRSSVNSVDILSEILILQTSYLSCSYILLYLWNFYSLAFASNFKTMSDTATTSTTVVIHLKRSNHDDASASATTAQLQQRSRYCDVSLASSEESSDLSDAEEKDDLIRRTITSSSKDTMEEGDDDDEEEFDDVVMEEDVGGGTDANEQFSRVIQRQISGAGGGILKKSNGKDTSEIIHHHPLFVKDTSKYWYKPTISREQAINMLRDKPPGTFVVRDSNSFPGAFGLALKVSTPPPGVNPGDGSELVRHFLIEPSPKGVKLKGCNNEPVFGSLSALVYQHSITALALPTKLVLPDFDPAATPEHLSATQALLEQGAACNVVYVGSVDVESLTGNECVKRSIATCSQRAINGDSRAVSVHFKVSSQGVTLTDNTRKVFFRRHFNVQSVIFAGMDPIERRFENTRALGFHDGCIAQARLFAFVARIPSSSENACHVFAELEPEQPGSAVVNFINKVMLAQKNRS | not soluble
3 | GPGSMRTCASTLSHLCAQGPLRGSMHVTLHALVRFCAHVASSLRSGQATLHPSLPLRFSHPLRLPSARFSHSTGVLSLALPVMQHTHIHTLTHTYSSIYRRFTARLRLSDSTCYTQGSTHTHTQSICFSIHSPLSLSLSETSALLGAPSSSSFSATSPAYRVRTASSCNRLPDGHKHFRKYIYIYIYIYWALSRISLGASADLPWNVRIHRVRMTATEYQKLIGERRLSPEEEENLVQRLYFRQMKLTEQREEERRAILERTRAQMQKHISKDEEGRLVSRMYDQQVERFANSKAERDRKLEEEMHKNDKKMDSSEIDDQVRRIYEEELKRSQARREELYSRYMPTAEAKKIGKKELKGCVERLSHVDWEKRDEELFKKYVYPYDPKTTKISRDDEQAMANRLSTTKGAG | not soluble
4 | MVTLEELKAVFKPKLKPIIWREDSLDLLDQSALPFQTTYITVKTPEEVAKAIKLMQVRGAPAIGITAGYGMVLALISTKPNTLNEAIEELVKAKQIMDQARPTAVNLSWATSRMLNFAKKKIEEGEAKSVSELIQLMKEEANRIYEEELEAELKIGMYGLEKISDGDTILTQCNAGGLATGTGLGTALAPVKLAHYLGMKVSVIAPETRPWLQGSRLTVYELMAEGIQVTLITDTAVGLVIYKNMVNSVMVGADRILKDGHVFNKIGTFKEAVISHELGIPFYALAPSSSFDLKSKVDEIKIEERDPNEVRTIRGIPIVPENVKVYNPVFDVTPPKYITALITEKGVIYPPFEKNIPKIIGL | soluble
5 | MVISLKNRNFLKLLDYTPAEIQHLIDLAIELKAAKKAGCEKQTLIGKNIALIFEKTSTRTRCAFEVAAFDQGAQVTYLGPSGSQIGHKESMKDTARVLGRMYDGIEYRGFGQHIVEELGEYAGVPVWNGLTDEFHPTQILADLMTMLEHAPGKTLPELSFAYLGDARNNMGNSLMVGAAKMGMDIRLIAPKSFWPDAALVAQCREIASVTGARITLTESVEDGVHGVDFLYTDVWVSMGEPKEAWAERVSLMTPYQVNQQVVNATGNPDVKFMHCLPAFHNEHTKVGREIEMAYGLKGLEVTEEVFESAGSIVFDEAENRMHTIKAVMVATLGD | not soluble
6 | MACVDISPLSYESVKSVVKYLSLKKREQINLSIPAYHKTAKLAPFKLENVGLSDLYIEVNDRTWTLSETDIIGCTLVLYRSNGYNFQHIISITPEVAFQKLISEYLRNGTRIKKFHLYALPSLLKNVELHVSELKIDGCDYETFAKFRKFIDHNQKILKEIGFVVRQNTLWMFDEQLVKNSKEIYLQFPYYNPVPLDDMLLRLKNNHVHIIYLGFPIEKLQELAMNWIDTKKPIGTSLFLVVEHYTYVIDVFEHLTKYSKAIPSRLTDLGTSFFSHCVTMHIDESSELVLFGGPMVIEWKPFKWTLRMTIMKRGSTISK | not soluble
7 | MSMNRQEISDLCVKSLEGRMVGTEAQNIENGNAFYRYFFTNFPDLRVYFKGAEKYTADDVKKSERFDKQGQRILLACHLLANVYTNEEVFKGYVRETINRHRIYKMDPALWMAFFTVFTGYLESVGCLNDQQKAAWMALGKEFNAESQTHLKNSNLPHV | not soluble
8 | RMSSQIRQNYSTDVEAAVNSLVNLYLQASYTYLSLGFYFDRDDVALEGVSHFFRELAEEKREGYERLLKMQNQRGGRALFQDIKKPAEDEWGKTPDAMKAAMALEKKLNQALLDLHALGSARTDPHLCDFLETHFLDEEVKLIKKMGDHLTNLHRLGGPEAGLGEYLSSKGSLSSTTKSLLSPATSEGPLAK | soluble
9 | MVTKTEEIQLNQLENQVENGGGGVWEYLCLVRKLKVRRSEIVLKHGLSILNDSGKRSALGPDEWTLYEQVAIAAMDCQSLGVAQNCIKVLKKKFPESKRVGKLEALLLEAKGMWEEAEKAYTSLLEDNPLDQVIHKRKVAMAKAQGKSSLAIEHLNKYLEVFMADHDAWRELAEIYVSLQMYKQAAFCYEELILTQPTLPLYHLAYADVLYTIGGLENLIAARKYYAATIDLTGGKSTRALLGICLCGSAIAQISKGRNKEDKDMAAPELQSLAATALEREYKQKAPAKLNLLTSALRNLKIA | not soluble
10 | MSLSRITTDQLRHAVLDRGSFVSWDSEPLAVPVADSYARELAAARAATGADESVQTGEGRVFGRRVAVVACEFDFLGGSIGVAAAERITAAVERATAERLPLLASPSSGGTRMQEGTVAFLQMVKIAAAIQLHNQARLPYLVYLRHPTTGGVFASWGSLGHLTVAEPGALIGFLGPRVYELLYGDPFPSGVQTAENLRRHGIIDGVVALDRLRPMLDRALTVLIDAPEPLPAPQTPAPVPDVPTWDSVVASRRPDRPGVRQLLRHGATDRVLLSGTDQGEAATTLLALARFGGQPTVVLGQQRAVGGGGSTVGPAALREARRGMALAAELCLPLVLVIDAAGPALSAAAEQGGLAGQIAHCLAELVTLDTPTVSILLGQGSGGPALAMLPADRVLAALHGWLAPLPPEGASAIVFRDTAHAAELAAAQGIRSADLLKSGIVDTIVPEYPDAADEPIEFALRLSNAIAAEVHALRKIPAPERLATRLQRYRRIGLEGHHHHHH | not soluble
11 | MPANIDGTLIKDPMVLNIMLFGSDERPGETGYGRSDTMMLLSIDNRNKKLKLTSFMRDTYVNVPEWGDTKLTHAYSYGGPALAIETIERNFGIDIDRYAVVYFDTFPGIVDTLGGIEVEMTQTEADVMNESVGPEFANFTEGKNTLNGATALVYVRIRYGVGDDFGRTQRQRDFMLQVLNKVKGTRDVGTLLTLLTKILPGVTTNISVNEMAGLAGGAISSYMDYPMYQFRLPEDGAFSAVDVDAGNVLAIDDWDAAREHLQRFIYEDTVDPIYGPLEHHHHHH | soluble
12 | MGSDKIHHHHHHMTDIATYNFAYLDEQTKRMIRRAILKGIAIPGYQVPFASREMPMPYGWGTGGVQVTASIIGPDDVLKVIDQGADDTTNAVSIRAFFKKVANVAVTTNTASATIIQTRHRIPEHPLTAGQVLVYQVPIPEPLRFLEPRETETRKMHALEEYGLMHVKLYEDIAKHGRIATTYAYPVKVEGRYVMDPSPTPKFDNPKMHRSPALQLFGAGREKRIYAVPPFTDVVSLDFEDHPFEVQTFDQPCALCAAENVYLDEVILDDHGGHMFVCSDTDHCEKRREEGHRGHLAPETHLGSEKMEPAQ | not soluble
13 | MASCHEPSAFKSLCAHPSTLTATFDVSPYSSAFHLPIHPALLSNTHLLHLNTYNPTTYESTERLFEQNNNNSEKAESCSSRDSSHDSSSPTSTGGSSRDNVIVRNELKRKKDQVKDVAYWERRRKNNDAAKRSRDQRRMKEDEMAHRATSLERENMLLRVELDQLRAETDKLRALILTTPTTSISIPIPLQSLPLLTAQTAPASSVITTSQMYAPLPLKIPKTPSPSLLRSTVLVSNSSKT | not soluble
14 | SKQDASRNAAYTVDCEDYVHVVEFNPFENGDSGNLIAYGGNNYVVIGTCTFQEEEADVEGIQYKTLRTFHHGVRVDGIAWSPETRLDSLPPVIKFCTSAADMKIRLFTSDLQDKNEYKVLEGHTDFINGLVFDPKEGQEIASVSDDHTCRIWNLEGVQTAHFVLHSPGMSVCWHPEETFKLMVAEKNGTIRFYDLLAQQAILSLESEQVPLMSAHWCLKNTFKVGAVAGNDWLIWDITRSSYPQNKRPVHMDRACLFRWSTISENLFATTGYPGKMASQFQIHHLGHPQPILMGSVAVGSGLSWHRTLPLCVIGGDHKLLFWVTEV | soluble
15 | MDKYHSMKELQNETIENEDWEIITEDRDSNVTILAIHGGGIEPATTELARVIANDGQFNYFAFNGMRTKGNNELHVTSINYDNDIAMDLVKTSESAITIHGCLGEDEIAYIGGKDNLLKERIVEELSQIGIEVKEAPSHMSGTQDNNIVNCTKNGVGVQIELTSSLRKSLFKNNKFNRKSRMDESNWDDKMYDFGQAINSAINLEHHHHHH | soluble
16 | AQPGAEVLAIDGITVKDTRGIETVRDLSLSVKAGEIVGIAGVDGNGQSELIEAVTGLRKTDSGTITLNGKQIQNLTPRKITESGIGHIPQDRHKHGLVLDFPIGENILLQSYYKKPYSALGVLHKGEMYKKARSLITEYDVRTPDEYTHARALSGGNQQKAIIGREIDRNPDLLIAAQPTRGLDVGAIEFVHKKLIEQRDAGKAVLLLSFELEEIMNLSDRIAVIFEGRIIASVNPQETTEQELGLLMAGSTQKEAGKANG | not soluble
17 | GPGSMEDYKAKGNDAFKAKRYQEAIDWYTKAIELDPNGEASGALYSNRAGSWQNLNNFEKAAADSEQCIRLRPDWLKGYFRLGVAMESMVKYDEAQKAFQKALQLSPGNEEVMDKLHAINTKVRERNEKTKSQQCKTPEEAKQLGNSFFKDGKYDQAAEFYTRAIELQTEPVKEKAVYYTNRAACHQQTHMYSLMVDDCNAAIEIDPANVKAYLRRGIAYEGMEKWKLALEDYTKAQSISPGVAGASQGILRCQRVLRS | soluble
18 | MICCLGPRGSYSEKAAVTFSKAINDSEIQFEDSIYNVFKAVETNPEFFGVVPSENSIGGSVSITQDLLLEFPVKILGEVDISINHCLLGYDIKKVTEVLAHPQALAQCGHYITKNNWNITPVDSNAKAAKIVSEEKDEKLAAICGVENAEIYGLNVLDEYIQDFKNNTTRFFLICNKNK | not soluble
